In article PMC11022571, “Functional analysis of feedback inhibition-insensitive aspartate kinase identified in a threonine-accumulating mutant of Saccharomyces cerevisiae” (Applied and Environmental Microbiology, 2024):
Residue numbers refer to the chain shown, from its start. Names and notes keep the numbering of the source.

T1: Hom3 (aspartate kinase, AK) (Saccharomyces cerevisiae, UniProt P10869)
T1 sequence (P10869 1-527): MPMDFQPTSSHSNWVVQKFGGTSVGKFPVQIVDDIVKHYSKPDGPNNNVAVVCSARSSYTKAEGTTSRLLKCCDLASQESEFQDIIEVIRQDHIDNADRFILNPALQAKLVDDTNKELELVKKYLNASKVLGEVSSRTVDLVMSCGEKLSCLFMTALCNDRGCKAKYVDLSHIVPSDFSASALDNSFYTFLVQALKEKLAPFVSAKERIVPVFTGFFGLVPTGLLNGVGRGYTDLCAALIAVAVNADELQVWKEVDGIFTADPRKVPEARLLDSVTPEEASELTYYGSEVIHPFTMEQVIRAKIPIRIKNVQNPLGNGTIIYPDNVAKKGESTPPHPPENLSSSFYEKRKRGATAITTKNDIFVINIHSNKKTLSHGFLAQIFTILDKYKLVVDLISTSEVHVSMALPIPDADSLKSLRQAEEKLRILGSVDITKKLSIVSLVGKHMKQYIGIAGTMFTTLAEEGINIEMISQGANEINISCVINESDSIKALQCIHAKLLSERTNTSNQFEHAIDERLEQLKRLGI

B1: Hom3 (aspartate kinase, AK) (Saccharomyces cerevisiae S288C) (protein)
chain: T1 sequence (P10869 1-527)
B2: Hom3 (aspartate kinase, AK) (Saccharomyces cerevisiae S288C; A462T) (protein)
chain: T1 sequence (P10869 1-527) with A462T

Columns and labels:
[1] = target: T1, Hom3 (aspartate kinase, AK); assay: PK/LDH-coupled AK assay at […] Asp and […] ATP; BN-PAGE shift from ~[…] to ~[…] kDa with […] Thr; type: biochemical
[2] = substrate: N[C@@H](CC(=O)O)C(=O)O; assay: steady-state kinetics (Km), PK/LDH-coupled assay; type: biochemical, Saccharomyces cerevisiae; conditions: Mg2+ ([…] MgSO4 in assay)
[3] = substrate: Nc1ncnc2c1ncn2[C@@H]1O[C@H](COP(=O)(O)OP(=O)(O)OP(=O)(O)O)[C@@H](O)[C@H]1O; assay: steady-state kinetics (Km), PK/LDH-coupled assay; type: biochemical, Saccharomyces cerevisiae; conditions: Mg2+ ([…] MgSO4 in assay)

| Molecule | IC50 [1] [mM] | Km [2] [µM] | kcat [2] [s⁻¹] | kcat/Km [2] [M⁻¹ s⁻¹] | Km [3] [µM] | kcat [3] [s⁻¹] | kcat/Km [3] [M⁻¹ s⁻¹] |
| --- | --- | --- | --- | --- | --- | --- | --- |
| C[C@@H](O)[C@H](N)C(=O)O [threonine] | 5.4 ± 0.12 | – | – | – | – | – | – |
| B1 | – | 3800 ± 360 | 55 ± 1.5 | 15000 | 830 ± 44 | 54 ± 0.78 | 65000 |
| B2 | – | 4400 ± 370 | 55 ± 1.4 | 13000 | 1000 ± 71 | 53 ± 1.1 | 51000 |
